Data reported in article doi:10.1101/2025.05.15.654345.

molecular target: human IFITM3 (untagged; interferon-induced transmembrane protein 3) (UniProt Q01628); experiment: co-immunoprecipitation (anti-HA IP, anti-IFITM3 immunoblot, band ratio); conditions: HEK293T co-transfected with pCMV-IFITM3 (0.50 μg) and pBJ-97ZA Nef-HA WT or mutant (0.25 μg); parent: 100
Chain of UniProt Q01628 (Q01628 whole entry): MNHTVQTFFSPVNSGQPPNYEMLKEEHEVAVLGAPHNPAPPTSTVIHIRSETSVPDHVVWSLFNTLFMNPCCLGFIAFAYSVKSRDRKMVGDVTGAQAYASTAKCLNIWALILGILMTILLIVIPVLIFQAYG

Substance | percent of parent (% (IFITM3/HA ratio, WT = 100))
97ZA013 Nef-HA (HIV-1 clade C primary isolate), wild type E153K | 73
97ZA013 Nef-HA (HIV-1 clade C primary isolate), wild type G2A | 1
97ZA013 Nef-HA (HIV-1 clade C primary isolate), wild type L164A; L165A | 87
97ZA013 Nef-HA (HIV-1 clade C primary isolate), wild type M20A | 124
97ZA013 Nef-HA (HIV-1 clade C primary isolate), wild type M169V; Q171L | 244
97ZA013 Nef-HA (HIV-1 clade C primary isolate), wild type N163T; C164S | 217
97ZA013 Nef-HA (HIV-1 clade C primary isolate), wild type R17A; R19A; R21A; R22A | 16
97ZA013 Nef-HA (HIV-1 clade C primary isolate), wild type R192F; R193H | 188
97ZA013 Nef-HA (HIV-1 clade C primary isolate), wild type S152D; E153K | 42
